Experiments:
Experiment in all cases: yeast two-hybrid
DOC1-related protein = target: T1, DOC1-related protein (human, UniProt Q4L180 241-1128)
T1 sequence: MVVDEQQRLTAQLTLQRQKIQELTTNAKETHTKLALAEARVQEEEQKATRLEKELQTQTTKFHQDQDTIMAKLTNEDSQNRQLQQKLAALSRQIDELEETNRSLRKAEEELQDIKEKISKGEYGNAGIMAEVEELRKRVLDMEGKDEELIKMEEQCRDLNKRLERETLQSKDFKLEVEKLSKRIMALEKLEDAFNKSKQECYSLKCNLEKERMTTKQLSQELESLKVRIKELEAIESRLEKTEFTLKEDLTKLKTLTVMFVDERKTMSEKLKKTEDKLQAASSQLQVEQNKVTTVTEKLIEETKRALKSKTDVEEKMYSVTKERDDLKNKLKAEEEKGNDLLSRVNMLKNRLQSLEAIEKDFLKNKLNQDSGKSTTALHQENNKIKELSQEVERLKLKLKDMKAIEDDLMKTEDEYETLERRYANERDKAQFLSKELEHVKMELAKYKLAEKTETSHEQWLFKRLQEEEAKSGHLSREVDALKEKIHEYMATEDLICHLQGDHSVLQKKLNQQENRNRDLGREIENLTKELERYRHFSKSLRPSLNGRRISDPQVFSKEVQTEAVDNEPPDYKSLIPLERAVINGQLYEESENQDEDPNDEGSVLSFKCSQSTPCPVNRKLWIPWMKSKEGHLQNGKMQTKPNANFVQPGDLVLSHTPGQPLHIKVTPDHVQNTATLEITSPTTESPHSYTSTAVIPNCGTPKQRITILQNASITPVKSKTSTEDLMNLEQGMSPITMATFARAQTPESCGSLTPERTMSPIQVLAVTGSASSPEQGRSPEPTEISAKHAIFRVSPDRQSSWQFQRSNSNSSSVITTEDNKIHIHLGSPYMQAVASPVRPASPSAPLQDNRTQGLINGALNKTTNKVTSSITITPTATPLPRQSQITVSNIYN

pol κ = target: T2, pol κ (UniProt Q9UBT6 1-870)
T2 construct: Tested in yeast two-hybrid (GAL4 domain fusion); also called primary protein product of the POLK
T2 sequence (looked up): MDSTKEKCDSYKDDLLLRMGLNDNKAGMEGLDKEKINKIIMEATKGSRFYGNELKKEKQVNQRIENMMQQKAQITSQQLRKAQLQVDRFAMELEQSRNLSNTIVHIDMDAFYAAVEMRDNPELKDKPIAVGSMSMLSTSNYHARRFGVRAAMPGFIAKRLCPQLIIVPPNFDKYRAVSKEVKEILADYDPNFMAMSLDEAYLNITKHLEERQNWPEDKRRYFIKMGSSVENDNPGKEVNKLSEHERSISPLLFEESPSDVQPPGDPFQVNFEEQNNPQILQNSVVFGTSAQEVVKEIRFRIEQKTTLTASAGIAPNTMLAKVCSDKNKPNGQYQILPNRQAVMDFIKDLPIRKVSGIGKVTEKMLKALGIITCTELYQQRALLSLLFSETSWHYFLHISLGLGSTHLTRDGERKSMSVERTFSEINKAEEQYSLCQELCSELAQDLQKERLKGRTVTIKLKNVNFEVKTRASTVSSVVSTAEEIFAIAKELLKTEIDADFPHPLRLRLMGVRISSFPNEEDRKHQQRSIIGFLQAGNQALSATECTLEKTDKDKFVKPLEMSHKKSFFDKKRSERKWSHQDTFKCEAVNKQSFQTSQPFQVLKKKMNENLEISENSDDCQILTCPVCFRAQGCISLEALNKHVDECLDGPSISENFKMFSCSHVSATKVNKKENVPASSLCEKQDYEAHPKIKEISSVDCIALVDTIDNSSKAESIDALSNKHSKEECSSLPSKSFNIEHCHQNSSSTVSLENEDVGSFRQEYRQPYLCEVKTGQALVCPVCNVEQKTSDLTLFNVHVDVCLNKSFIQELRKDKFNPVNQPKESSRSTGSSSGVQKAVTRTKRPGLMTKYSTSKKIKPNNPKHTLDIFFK

[1] = target: T3, GIP130c with deletion of the N terminal 240-residues (human, UniProt Q4L180 241-1128)
T3 sequence: T1 sequence

- binding result (DOC1-related protein): no binding
- binding result (pol κ): no binding
- binding result [1]: no binding
B1: Goodpasture antigen binding protein (GPBP) (enzyme, UniProt Q9Y5P4 1-624, looked up)
chain: MSDNQSWNSSGSEEDPETESGPPVERCGVLSKWTNYIHGWQDRWVVLKNNALSYYKSEDETEYGCRGSICLSKAVITPHDFDECRFDISVNDSVWYLRAQDPDHRQQWIDAIEQHKTESGYGSESSLRRHGSMVSLVSGASGYSATSTSSFKKGHSLREKLAEMETFRDILCRQVDTLQKYFDACADAVSKDELQRDKVVEDDEDDFPTTRSDGDFLHSTNGNKEKLFPHVTPKGINGIDFKGEAITFKATTAGILATLSHCIELMVKREDSWQKRLDKETEKKRRTEEAYKNAMTELKKKSHFGGPDYEEGPNSLINEEEFFDAVEAALDRQDKIEEQSQSEKVRLHWPTSLPSGDAFSSVGTHRFVQKPYSRSSSMSSIDLVSASDDVHRFSSQVEEMVQNHMTYSLQDVGGDANWQLVVEEGEMKVYRREVEENGIVLDPLKATHAVKGVTGHEVCNYFWNVDVRNDWETTIENFHVVETLADNAIIIYQTHKRVWPASQRDVLYLSVIRKIPALTENDPETWIVCNFSVDHDSAPLNNRCVRAKINVAMICQTLVSPPEGNQEISRDNILCKITYVANVNPGGWAPASVLRAVAKREYPKFLKRFTSYVQEKTAGKPILF
notes: Protein kinase; Fusion parts are not written as pieces

Reference: patent US20030108554A1 (published 2003)
